Reference: patent US20230210927A1

Molecular target: E1B55K protein (adenovirus early region 1B-55 kDa) (adenovirus type 5) (UniProt P03243)
Test: cell-based or functional assay

UniProt P03243, sequence (P03243 whole entry): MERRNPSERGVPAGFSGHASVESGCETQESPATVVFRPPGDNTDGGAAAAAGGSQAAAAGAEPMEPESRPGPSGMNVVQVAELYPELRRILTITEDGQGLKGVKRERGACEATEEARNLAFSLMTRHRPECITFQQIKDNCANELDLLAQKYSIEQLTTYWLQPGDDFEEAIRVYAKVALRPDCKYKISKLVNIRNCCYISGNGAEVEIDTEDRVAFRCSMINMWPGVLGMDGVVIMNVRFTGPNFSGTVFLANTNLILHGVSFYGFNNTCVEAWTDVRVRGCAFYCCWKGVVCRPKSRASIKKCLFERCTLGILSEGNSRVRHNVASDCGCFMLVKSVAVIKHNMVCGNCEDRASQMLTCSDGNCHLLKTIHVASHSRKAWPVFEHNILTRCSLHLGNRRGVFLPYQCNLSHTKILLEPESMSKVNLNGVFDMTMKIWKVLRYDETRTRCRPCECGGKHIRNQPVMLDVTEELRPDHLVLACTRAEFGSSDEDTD

Substance: E4orf6 protein (adenovirus)
- luminescence intensity due to luciferase activity (pGL2-p53 promoter, Dual-Luciferase Reporter Assay) in the MSC-TERT-tetoneE1B55K cell line with doxycycline; 4-fold increase with E1B55K alone: < 1.5 fold
